US20030175278A1 (published 2003)

B1: near full-length ubiquilin-prey clone (FIG. 2 III, construct H without GST), M37-S595 (other, not shown: large carriers)
chain: MKVTVKTPKEKEEFAVPENSSVQQFKEEISKRFKSHTDQLVLIFAGKILKDQDTLSQHGIHDGLTVHLVIKTQNRPQDHSAQQTNTAGTNVTTSSTPNSNSTSGSATSNPFGLGGLGGLAGLSSLGLNTTNFSELQSQMQRQLLSNPEMMVQIMENPFVQSMLSNPDLMRQLIMANPQMQQLIQRNPEISHMLNNPDIMRQTLELARNPAMMQEMMRNQDRALSNLESIPGGYNALRRMYTDIQEPMLSAAQEQFGGNPFASLVSNTSSGEGSQPSRTENRDPLPNPWAPQTSQSSSASSGTASTVGGTTGSTASGTSGQSTTAPNLVPGVGASMFNTPGMQSLLQQITENPQLMQNMLSAPYMRSMMQSLSQNPDLAAQMMLNNPLFAGNPQLQEQMRQQLPTFLQQMQNPDTLSAMSNPRAMQALLQIQQGLQTLATEAPGLIPGFTPGLGALGSTGGSSGTNGSNATPSENTSPTAGTTEPGHQQFIQQMLQALAGVNPQLQNPEVRFQQQLEQLSAMGFLNREANLQALIATGGDINAAIERLLGSQHHSSISVS
notes: also called near full-length clone (encoding residues 37-595); the longer ubiquilin clone
B2: ubiquilin-prey clone (FIG. 2 III, construct B without GST), Q378-S595 (other, not shown: large carriers)
chain: QSLLQQITENPQLMQNMLSAPYMRSMMQSLSQNPDLAAQMMLNNPLFAGNPQLQEQMRQQLPTFLQQMQNPDTLSAMSNPRAMQALLQIQQGLQTLATEAPGLIPGFTPGLGALGSTGGSSGTNGSNATPSENTSPTAGTTEPGHQQFIQQMLQALAGVNPQLQNPEVRFQQQLEQLSAMGFLNREANLQALIATGGDINAAIERLLGSQHHSSISVS
notes: also called partial ubiquilin clone (encoding the COOH-terminal 218 residues)

Target: T1, PS2-COOH terminus Y2H bait (PS2 COOH-terminal 39 amino acids, K410-I448) (human)
T1 construct: also called PS2-COOH-terminal bait; not shown: the LexA fusion partner of the bait and any linker
T1 sequence (chain, as listed by the source limits assumed): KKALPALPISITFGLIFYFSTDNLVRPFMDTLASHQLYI
Assay: Y2H β-galactosidase liquid culture assay (ONPG)
Protocol: The yeast two-hybrid (Y2H) procedure that utilizes the LexA/transactivation system was performed, as described previously (Stabler, et al. 1999). The PS2 COOH-terminal 39-amino acids (residues […]) (see FIG. 1a and FIG. b) were used as bait to screen a human fetal brain cDNA library. Out of 10⁷ primary yeast transformants, 50 clones were selected for further analysis based on growth in the absence of leucine and a substantial blue color change when grown on 5-bromo-4-chloro-3-indolyl-β-D-galactopyranoside (X-gal) plates. False positives were subsequently eliminated based on their interactions with negative-control baits, such as LexA alone, nuclear lamin B, and CENP-C centromere protein. Plasmid DNAs were isolated from clones that fulfilled the above requirements, and the DNA sequences of their inserts were determined and compared with the GenBank/EMBL/DDBJ databases using the BLAST search program. […] Interaction of ubiquilin proteins with various PS1 and PS2 baits were quantified in liquid culture assays by the enzymatic conversion of o-nitrophenyl-β-D-galactopyranoside (ONPG) to o-nitrophenol and D-galactose by β-galactosidase enzyme encoded by an Y2H reporter plasmid.
Interaction between ubiquilin and the presenilins was quantified in Y2H β-galactosidase liquid culture assays. […]

Binder | fold β-galactosidase activity compared with negative-control baits [fold]
B1 | > 55
B2 | > 55
